Results taken from paper PMC4596688, “Structural determinants of nuclear export signal orientation in binding to exportin CRM1” (eLife, 2015).

These binders were tested against Full-length human CRM1 (HsCRM1), O14980 (assay: GST pull-down, SDS/PAGE band intensity). Details: chain shown with the change; excess ScRanGTP; triplicate experiments; parent: est. 100; read off a plot.
Chain of Full-length human CRM1 (HsCRM1), O14980 (O14980 whole entry): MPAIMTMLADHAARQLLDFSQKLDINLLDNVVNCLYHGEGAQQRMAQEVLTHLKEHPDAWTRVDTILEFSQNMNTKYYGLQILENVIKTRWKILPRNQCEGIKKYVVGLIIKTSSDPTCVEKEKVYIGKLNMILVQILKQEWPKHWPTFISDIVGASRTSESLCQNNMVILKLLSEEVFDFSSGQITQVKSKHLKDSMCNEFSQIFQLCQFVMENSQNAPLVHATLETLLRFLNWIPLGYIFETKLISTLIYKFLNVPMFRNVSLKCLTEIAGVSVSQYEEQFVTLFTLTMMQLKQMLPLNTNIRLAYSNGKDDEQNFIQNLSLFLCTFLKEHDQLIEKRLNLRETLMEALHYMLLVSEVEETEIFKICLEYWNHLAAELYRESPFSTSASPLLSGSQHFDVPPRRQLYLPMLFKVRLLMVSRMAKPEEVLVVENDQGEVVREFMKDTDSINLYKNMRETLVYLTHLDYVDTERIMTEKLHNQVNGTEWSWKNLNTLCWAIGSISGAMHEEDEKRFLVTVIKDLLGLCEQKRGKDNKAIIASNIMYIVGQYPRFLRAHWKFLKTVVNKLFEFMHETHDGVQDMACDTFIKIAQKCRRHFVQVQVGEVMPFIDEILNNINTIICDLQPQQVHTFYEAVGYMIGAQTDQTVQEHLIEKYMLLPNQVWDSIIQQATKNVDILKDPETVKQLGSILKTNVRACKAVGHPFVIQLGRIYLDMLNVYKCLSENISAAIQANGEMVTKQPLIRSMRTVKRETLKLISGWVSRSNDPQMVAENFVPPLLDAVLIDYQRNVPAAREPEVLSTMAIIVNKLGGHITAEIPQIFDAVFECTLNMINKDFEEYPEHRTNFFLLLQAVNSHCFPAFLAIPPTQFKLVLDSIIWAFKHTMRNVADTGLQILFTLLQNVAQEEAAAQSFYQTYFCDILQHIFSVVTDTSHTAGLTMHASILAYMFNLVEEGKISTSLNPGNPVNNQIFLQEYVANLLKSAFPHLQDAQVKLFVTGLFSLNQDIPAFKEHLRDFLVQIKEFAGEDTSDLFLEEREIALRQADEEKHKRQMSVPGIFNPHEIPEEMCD

Going from GKIEELAQNFETMEISR [GST-hRio2NES-R F13I] to GKIEELAQNFETMEVSR [GST-hRio2NES-R F13V], the percent of parent falls from 150% to 140%.

Going from GKIEELAQNFETMELSR [GST-hRio2NES-R F13L] to GKIEELAQNFETLEFSR [GST-hRio2NES-R M11L], the percent of parent falls from 130% to 105%.
